What follows are substances tested against nebu_human NEB (UniProt P20929).

Row | Substance | effect of a mutation on the interaction
1 | Titin (Homo sapiens), Q8WZ42 P254G | decreasing interaction
2 | Titin (Homo sapiens), Q8WZ42 P258G | decreasing interaction
3 | Titin (Homo sapiens), Q8WZ42 P266G | decreasing interaction
4 | Titin (Homo sapiens), Q8WZ42 P268G | decreasing interaction
5 | Titin (Homo sapiens), Q8WZ42 P269G | decreasing interaction

Source: IntAct's records for PubMed 16902413
